{"source": "paper PMC10359635", "about": "“Cas1–Cas2 physically and functionally interacts with DnaK to modulate CRISPR Adaptation”", "binders": {"B1": {"name": "Fork (flayed duplex MW12/MW14) (dsDNA)", "DNA 1": "GTCGGATCCTCTAGACAGCTCCATGATCACTGGCACTGGTAGAATTCGGC", "DNA 2": "CAACGTCATAGACGATTACATTGCTACATGGAGCTGTCTAGAGGATCCGA"}}, "key": {"DnaK S427P": {"target": "DnaK S427P (Escherichia coli (K-12 MG1655), UniProt P0A6Y8 1-638, S427P)", "assay": "EMSA; EMSA: 20 nM Cy5 fork, 20 mM Tris pH 8.0, 0.1 mg/ml BSA, 7% glycerol (25% after DnaK addition); proteins diluted in 20 mM Tris pH 8.0, 100 mM NaCl, 1 mM DTT; Cas1 preincubated 5 min, then 25 min at 37 C; 5% native acrylamide gel", "details": "protein: recombinant; tags: N-terminal 6xHis; label: 5'-Cy5 on MW14; fork: 24 bp duplex 1:2-25 2:27-50; 3' arm of strand 1 25 nt, 5' arm of strand 2 26 nt; 1 nt 5' overhang on strand 1"}, "DnaK": {"target": "DnaK (Escherichia coli (K-12 MG1655), UniProt P0A6Y8 1-638)", "assay": "EMSA; mixed with Cy5-ssDNA; EMSA: 20 nM Cy5 fork, 20 mM Tris pH 8.0, 0.1 mg/ml BSA, 7% glycerol (25% after DnaK addition); proteins diluted in 20 mM Tris pH 8.0, 100 mM NaCl, 1 mM DTT; Cas1 preincubated 5 min, then 25 min at 37 C; 5% native acrylamide gel", "details": "protein: recombinant; tags: N-terminal 6xHis; label: 5'-Cy5 on MW14; fork: 24 bp duplex 1:2-25 2:27-50; 3' arm of strand 1 25 nt, 5' arm of strand 2 26 nt; 1 nt 5' overhang on strand 1"}, "Cas1": {"target": "T1, Cas1 (Escherichia coli, UniProt Q46896 1-305)", "T1 sequence": "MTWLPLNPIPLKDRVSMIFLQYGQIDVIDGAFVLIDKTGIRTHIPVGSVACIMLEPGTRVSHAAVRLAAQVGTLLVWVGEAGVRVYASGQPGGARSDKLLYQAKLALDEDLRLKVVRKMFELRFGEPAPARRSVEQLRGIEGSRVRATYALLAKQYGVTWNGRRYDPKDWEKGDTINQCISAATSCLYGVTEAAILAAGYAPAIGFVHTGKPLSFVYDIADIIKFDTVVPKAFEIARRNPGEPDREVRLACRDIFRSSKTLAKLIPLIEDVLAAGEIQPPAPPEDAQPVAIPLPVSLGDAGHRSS", "assay": "EMSA; mixed with Cy5-ssDNA decoy; aggregates in wells at highest Cas1; EMSA: 20 nM Cy5 fork, 20 mM Tris pH 8.0, 0.1 mg/ml BSA, 7% glycerol (25% after DnaK addition); proteins diluted in 20 mM Tris pH 8.0, 100 mM NaCl, 1 mM DTT; Cas1 preincubated 5 min, then 25 min at 37 C; 5% native acrylamide gel", "details": "protein: recombinant; tags: C-terminal Strep-tag II; chain copies: 2; label: 5'-Cy5 on MW14; fork: 24 bp duplex 1:2-25 2:27-50; 3' arm of strand 1 25 nt, 5' arm of strand 2 26 nt; 1 nt 5' overhang on strand 1"}}}
{"binder": "B1", "values": [{"measurement": "binding result", "setting": "DnaK S427P", "value": "no binding"}, {"measurement": "binding result", "setting": "DnaK", "value": "no binding"}, {"measurement": "binding result", "setting": "Cas1", "value": "binds"}]}
